T1: rat CD47 (rat, UniProt P97829 19-303)
T1 chain: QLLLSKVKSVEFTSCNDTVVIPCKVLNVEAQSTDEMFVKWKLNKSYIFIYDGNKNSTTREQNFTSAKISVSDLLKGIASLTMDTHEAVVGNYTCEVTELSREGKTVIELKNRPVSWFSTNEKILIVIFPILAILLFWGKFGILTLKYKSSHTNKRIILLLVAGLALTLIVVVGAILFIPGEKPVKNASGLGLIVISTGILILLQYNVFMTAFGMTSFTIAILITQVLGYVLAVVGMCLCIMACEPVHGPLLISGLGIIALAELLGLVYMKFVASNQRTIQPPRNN

T2: mouse CD47 (mouse, UniProt Q61735 19-303)
T2 chain: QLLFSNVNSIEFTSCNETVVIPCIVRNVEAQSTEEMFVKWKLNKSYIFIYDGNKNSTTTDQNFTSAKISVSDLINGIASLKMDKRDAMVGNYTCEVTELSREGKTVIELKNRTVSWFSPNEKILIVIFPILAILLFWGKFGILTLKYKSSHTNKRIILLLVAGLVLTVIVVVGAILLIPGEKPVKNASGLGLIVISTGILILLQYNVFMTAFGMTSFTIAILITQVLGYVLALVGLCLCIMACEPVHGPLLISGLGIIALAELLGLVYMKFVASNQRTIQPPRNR

T3: pig CD47 (pig, UniProt Q9GKE8 19-303)
T3 chain: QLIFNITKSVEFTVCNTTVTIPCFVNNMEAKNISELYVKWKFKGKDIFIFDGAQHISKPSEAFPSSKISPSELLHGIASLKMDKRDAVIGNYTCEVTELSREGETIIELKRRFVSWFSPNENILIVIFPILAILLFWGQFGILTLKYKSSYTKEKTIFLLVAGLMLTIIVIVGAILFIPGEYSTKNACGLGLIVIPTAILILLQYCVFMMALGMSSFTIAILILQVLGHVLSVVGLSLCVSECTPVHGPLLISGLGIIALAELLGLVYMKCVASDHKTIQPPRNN


Assays:
rat CD47 = target: T1, rat CD47; experiment: FACS binding; rat RBCs
human CD47 = human CD47 (human, UniProt Q08722 19-323); experiment: FACS binding; human RBCs
Sequence of human CD47 (Q08722 19-323): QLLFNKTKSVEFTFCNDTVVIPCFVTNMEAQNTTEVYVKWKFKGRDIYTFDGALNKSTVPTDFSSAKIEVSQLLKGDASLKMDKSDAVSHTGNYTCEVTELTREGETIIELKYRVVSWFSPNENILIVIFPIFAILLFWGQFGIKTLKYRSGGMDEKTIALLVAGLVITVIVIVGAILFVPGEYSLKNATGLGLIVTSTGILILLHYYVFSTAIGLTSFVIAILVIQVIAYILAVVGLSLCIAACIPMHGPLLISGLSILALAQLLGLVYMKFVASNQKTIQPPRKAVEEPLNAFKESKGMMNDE

mouse CD47 = target: T2, mouse CD47; experiment: FACS binding; mouse RBCs
pig CD47 = target: T3, pig CD47; experiment: FACS binding; porcine RBCs

| EC50 (rat CD47) [mg/L] | EC50 (human CD47) [mg/L] | EC50 (mouse CD47) [mg/L] | EC50 (pig CD47) [mg/L] | Binder |
| --- | --- | --- | --- | --- |
| 0.258 | 0.216 | 0.265 | 0.0309 | Clone 1.1 (hum01 IgG1 N297Q) (antibody) heavy: QVQLQESGPGLVKPSQTLSLTCTVSGYTFTNYYVFWVRQARGQRLEWIGDINPVNGDTNFNEKFKNRVTISADKSISTAYLQWSSLKASDTAMYYCARGGYTMDYWGQGTLVTVSSASTKGPSVFPLAPSSKSTSGGTAALGCLVKDYFPEPVTVSWNSGALTSGVHTFPAVLQSSGLYSLSSVVTVPSSSLGTQTYICNVNHKPSNTKVDKKVEPKSCDKTHTCPPCPAPELLGGPSVFLFPPKPKDTLMISRTPEVTCVVVDVSHEDPEVKFNWYVDGVEVHNAKTKPREEQYQSTYRVVSVLTVLHQDWLNGKEYKCKVSNKALPAPIEKTISKAKGQPREPQVYTLPPSR light: DIVMTQTPLSLPVTPGEPASISCRSSQSLVHSNGNTYLHWYQQKPGKAPKLLIYKVSYRFSGVPDRFSGSGSGTDFTLKISRVEAEDVGVYYCSQNTHVPRTFGQGTKVEIKRTVAAPSVFIFPPSDEQLKSGTASVVCLLNNFYPREAKVQWKVDNALQSGNSQESVTEQDSKDSTYSLSSTLTLSKADYEKHKVYACEVTHQGLSSPVTKSFNRGEC |
| 0.0461 | 0.12 | 0.0418 | 0.0152 | Clone 13 (pVxK7b-037-hum13-LC / pVxK7b-037-hum13-HC) (antibody) heavy: not shown light: DIVMTQTPLSLPVTPGEPASISCRSSQSLVHSNGNTYLHWYQQKPGKAPKLLIYKVSYRFSGVPDRFSGSGSGTDFTLKISRVEAEDVGVYYCSQNTHVPRTFGQGTKVEIKRTVAAPSVFIFPPSDEQLKSGTASVVCLLNNFYPREAKVQWKVDNALQSGNSQESVTEQDSKDSTYSLSSTLTLSKADYEKHKVYACEVTHQGLSSPVTKSFNRGEC |
| 0.0479 | 0.184 | 0.0657 | 0.014 | Clone 1 (pVxK7b-037-hum01-LC / pVxK7b-037-hum01-HC) (antibody) heavy: not shown light: DIVMTQTPLSLPVTPGEPASISCRSSQSLVHSNGNTYLHWYQQKPGKAPKLLIYKVSYRFSGVPDRFSGSGSGTDFTLKISRVEAEDVGVYYCSQNTHVPRTFGQGTKVEIKRTVAAPSVFIFPPSDEQLKSGTASVVCLLNNFYPREAKVQWKVDNALQSGNSQESVTEQDSKDSTYSLSSTLTLSKADYEKHKVYACEVTHQGLSSPVTKSFNRGEC |
| 0.0835 | 0.163 | 0.0673 | 0.031 | Clone 13.1 (hum13 IgG1 N297Q) (antibody) heavy: EVQLVQSGAEVKKPGESLRISCKGSGYTFTNYYVFWIRQSPSRGLEWLGDINPVNGDTNFNEKFKNRVTITADKSTSTAYMELSSLRSEDTAVYYCARGGYTMDYWGQGTLVTVSSASTKGPSVFPLAPSSKSTSGGTAALGCLVKDYFPEPVTVSWNSGALTSGVHTFPAVLQSSGLYSLSSVVTVPSSSLGTQTYICNVNHKPSNTKVDKKVEPKSCDKTHTCPPCPAPELLGGPSVFLFPPKPKDTLMISRTPEVTCVVVDVSHEDPEVKFNWYVDGVEVHNAKTKPREEQYQSTYRVVSVLTVLHQDWLNGKEYKCKVSNKALPAPIEKTISKAKGQPREPQVYTLPPSR light: DIVMTQTPLSLPVTPGEPASISCRSSQSLVHSNGNTYLHWYQQKPGKAPKLLIYKVSYRFSGVPDRFSGSGSGTDFTLKISRVEAEDVGVYYCSQNTHVPRTFGQGTKVEIKRTVAAPSVFIFPPSDEQLKSGTASVVCLLNNFYPREAKVQWKVDNALQSGNSQESVTEQDSKDSTYSLSSTLTLSKADYEKHKVYACEVTHQGLSSPVTKSFNRGEC |
